From patent publication US20200115416A1 (REGENTS OF THE UNIVERSITY OF MINNESOTA, published 2020)
Square brackets hold non-standard residues; d marks the D form. hPhe = N[C@@H](CCc1ccccc1)C(=O)O; Nle = CCCC[C@H](N)C(=O)O; Dap = NC[C@H](N)C(=O)O

B1: c[Pro-Arg-Phe-Phe-Dap-Ser-Nle-DPro] (peptide)
peptide: cyclo(PRFF[Dap]S[Nle][dP])
SMILES: CCCC[C@@H]1NC(=O)[C@H](CO)NC(=O)[C@H](CN)NC(=O)[C@H](Cc2ccccc2)NC(=O)[C@H](Cc2ccccc2)NC(=O)[C@H](CCCNC(=N)N)NC(=O)[C@@H]2CCCN2C(=O)[C@H]2CCCN2C1=O
B2: c[Pro-Arg-Phe-Phe-Asn-Ser-Nle-DPro] (peptide)
peptide: cyclo(PRFFNS[Nle][dP])
SMILES: CCCC[C@@H]1NC(=O)[C@H](CO)NC(=O)[C@H](CC(N)=O)NC(=O)[C@H](Cc2ccccc2)NC(=O)[C@H](Cc2ccccc2)NC(=O)[C@H](CCCNC(=N)N)NC(=O)[C@@H]2CCCN2C(=O)[C@H]2CCCN2C1=O
B3: c[Pro-Arg-Phe-Phe-Dap-Ser-Phe-DPro] (peptide)
peptide: cyclo(PRFF[Dap]SF[dP])
SMILES: N=C(N)NCCC[C@@H]1NC(=O)[C@@H]2CCCN2C(=O)[C@H]2CCCN2C(=O)[C@H](Cc2ccccc2)NC(=O)[C@H](CO)NC(=O)[C@H](CN)NC(=O)[C@H](Cc2ccccc2)NC(=O)[C@H](Cc2ccccc2)NC1=O
B4: c[Pro-Arg-Phe-Phe-Arg-Ser-Phe-DPro] (peptide)
peptide: cyclo(PRFFRSF[dP])
SMILES: N=C(N)NCCC[C@@H]1NC(=O)[C@H](Cc2ccccc2)NC(=O)[C@H](Cc2ccccc2)NC(=O)[C@H](CCCNC(=N)N)NC(=O)[C@@H]2CCCN2C(=O)[C@H]2CCCN2C(=O)[C@H](Cc2ccccc2)NC(=O)[C@H](CO)NC1=O
B5: c[Pro-Arg-Phe-Phe-Arg-Ser-Nle-DPro] (peptide)
peptide: cyclo(PRFFRS[Nle][dP])
SMILES: CCCC[C@@H]1NC(=O)[C@H](CO)NC(=O)[C@H](CCCNC(=N)N)NC(=O)[C@H](Cc2ccccc2)NC(=O)[C@H](Cc2ccccc2)NC(=O)[C@H](CCCNC(=N)N)NC(=O)[C@@H]2CCCN2C(=O)[C@H]2CCCN2C1=O
B6: c[Pro-Arg-Phe-Phe-Dap-Ala-Nle-DPro] (peptide)
peptide: cyclo(PRFF[Dap]A[Nle][dP])
SMILES: CCCC[C@@H]1NC(=O)[C@H](C)NC(=O)[C@H](CN)NC(=O)[C@H](Cc2ccccc2)NC(=O)[C@H](Cc2ccccc2)NC(=O)[C@H](CCCNC(=N)N)NC(=O)[C@@H]2CCCN2C(=O)[C@H]2CCCN2C1=O
B7: c[Pro-Arg-Phe-Phe-Arg-Ala-Nle-DPro] (peptide)
peptide: cyclo(PRFFRA[Nle][dP])
SMILES: CCCC[C@@H]1NC(=O)[C@H](C)NC(=O)[C@H](CCCNC(=N)N)NC(=O)[C@H](Cc2ccccc2)NC(=O)[C@H](Cc2ccccc2)NC(=O)[C@H](CCCNC(=N)N)NC(=O)[C@@H]2CCCN2C(=O)[C@H]2CCCN2C1=O
B8: c[Pro-Arg-Phe-Phe-Leu-Ala-Phe-DPro] (peptide)
peptide: cyclo(PRFFLAF[dP])
SMILES: CC(C)C[C@@H]1NC(=O)[C@H](Cc2ccccc2)NC(=O)[C@H](Cc2ccccc2)NC(=O)[C@H](CCCNC(=N)N)NC(=O)[C@@H]2CCCN2C(=O)[C@H]2CCCN2C(=O)[C@H](Cc2ccccc2)NC(=O)[C@H](C)NC1=O
B9: c[Pro-Arg-Phe-Phe-Thr-Ala-Phe-DPro] (peptide)
peptide: cyclo(PRFFTAF[dP])
SMILES: C[C@@H]1NC(=O)[C@H]([C@@H](C)O)NC(=O)[C@H](Cc2ccccc2)NC(=O)[C@H](Cc2ccccc2)NC(=O)[C@H](CCCNC(=N)N)NC(=O)[C@@H]2CCCN2C(=O)[C@H]2CCCN2C(=O)[C@H](Cc2ccccc2)NC1=O
B10: c[Pro-Arg-Phe-hPhe-Asn-Ala-Nle-DPro] (peptide)
peptide: cyclo(PRF[hPhe]NA[Nle][dP])
SMILES: CCCC[C@@H]1NC(=O)[C@H](C)NC(=O)[C@H](CC(N)=O)NC(=O)[C@H](CCc2ccccc2)NC(=O)[C@H](Cc2ccccc2)NC(=O)[C@H](CCCNC(=N)N)NC(=O)[C@@H]2CCCN2C(=O)[C@H]2CCCN2C1=O

target: T1, mouse melanocortin-3 receptor (mouse, UniProt P33033 1-323); experiment: cell-based or functional assay
T1 sequence (P33033 whole entry): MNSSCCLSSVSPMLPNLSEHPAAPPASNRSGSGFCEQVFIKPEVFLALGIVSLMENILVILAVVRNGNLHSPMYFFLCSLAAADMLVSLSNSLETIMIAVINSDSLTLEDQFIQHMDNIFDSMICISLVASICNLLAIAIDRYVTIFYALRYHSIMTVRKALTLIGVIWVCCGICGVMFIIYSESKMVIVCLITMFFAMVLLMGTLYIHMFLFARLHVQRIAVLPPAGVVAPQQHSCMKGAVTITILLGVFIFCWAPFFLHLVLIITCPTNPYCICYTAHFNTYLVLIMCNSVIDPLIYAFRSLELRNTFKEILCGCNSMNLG

Row | antagonist pA2 (Schild, agonist NDP-MSH) | Binder
1 | 6.5 | B1
2 | 6.6 | B2
3 | 7.4 | cyclo(PRFFRAF[dP]) [c[Pro-Arg-Phe-Phe-Arg-Ala-Phe-DPro]]
4 | 6.8 | B3
5 | 7.1 | B4
6 | 7.1 | B5
7 | 7.1 | B6
8 | 7.1 | PRFFXAFP (head-to-tail cyclic; hPhe at 4; Dap at 5; DPro at 8) [c[Pro-Arg-Phe-hPhe-Dap-Ala-Phe-DPro]]
9 | 7.5 | B7

target: T2, mouse melanocortin-4 receptor (mouse, UniProt P56450 1-332); experiment: cell-based or functional assay
T2 sequence (P56450 whole entry): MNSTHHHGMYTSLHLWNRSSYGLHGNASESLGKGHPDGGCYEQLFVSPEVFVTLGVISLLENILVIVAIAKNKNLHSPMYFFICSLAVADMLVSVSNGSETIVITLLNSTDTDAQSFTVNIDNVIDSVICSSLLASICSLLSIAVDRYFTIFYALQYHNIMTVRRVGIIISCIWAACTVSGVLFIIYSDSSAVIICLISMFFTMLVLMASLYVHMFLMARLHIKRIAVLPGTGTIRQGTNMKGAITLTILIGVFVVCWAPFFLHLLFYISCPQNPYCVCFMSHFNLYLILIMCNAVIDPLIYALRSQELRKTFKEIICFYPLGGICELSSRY

Row | antagonist pA2 (Schild, agonist NDP-MSH) | Binder
10 | 9.1 | B1
11 | 8.5 | B2
12 | 8.7 | cyclo(PRFFRAF[dP]) [c[Pro-Arg-Phe-Phe-Arg-Ala-Phe-DPro]]
13 | 9.1 | B3
14 | 9 | B4
15 | 9.6 | B5
16 | 9 | B6
17 | 9.1 | B7

target: T1, mouse melanocortin-3 receptor; experiment: cell-based or functional assay; remark: another data set of the same source

Row | agonist EC50 (cAMP AlphaScreen) | antagonist pA2 (Schild, agonist NDP-MSH) | Binder
18 | > 100 µM | 5.7 | B8
19 | > 100 µM | < 5.5 | cyclo(PRFF[Nle]AF[dP]) [c[Pro-Arg-Phe-Phe-Nle-Ala-Phe-DPro]]
20 | > 100 µM | 6.4 | B9

target: T2, mouse melanocortin-4 receptor; experiment: cell-based or functional assay; remark: another data set of the same source

Row | agonist EC50 (cAMP AlphaScreen) | antagonist pA2 (Schild, agonist NDP-MSH) | Binder
21 | > 100 µM | 7.34 | B8
22 | > 100 µM | 6.9 | cyclo(PRFF[Nle]AF[dP]) [c[Pro-Arg-Phe-Phe-Nle-Ala-Phe-DPro]]
23 | > 100 µM | 7.76 | B9

target: T3, mouse melanocortin-1 receptor (mouse, UniProt Q01727 1-315); experiment: cell-based or functional assay
T3 sequence (Q01727 whole entry): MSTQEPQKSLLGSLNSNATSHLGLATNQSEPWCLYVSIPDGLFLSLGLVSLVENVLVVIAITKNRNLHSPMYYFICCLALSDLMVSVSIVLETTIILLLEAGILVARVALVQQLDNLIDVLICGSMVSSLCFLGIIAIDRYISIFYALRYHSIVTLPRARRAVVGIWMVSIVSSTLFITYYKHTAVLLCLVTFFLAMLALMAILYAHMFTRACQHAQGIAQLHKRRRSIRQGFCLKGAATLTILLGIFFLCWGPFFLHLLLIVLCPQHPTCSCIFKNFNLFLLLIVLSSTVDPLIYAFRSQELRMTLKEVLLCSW

Row | agonist EC50 (cAMP AlphaScreen) | Binder
24 | > 100 µM | B8
25 | > 100 µM | cyclo(PRFF[Nle]AF[dP]) [c[Pro-Arg-Phe-Phe-Nle-Ala-Phe-DPro]]
26 | > 100 µM | B9

target: T4, mouse melanocortin-5 receptor (mouse, UniProt P41149 1-325); experiment: cell-based or functional assay
T4 sequence (P41149 whole entry): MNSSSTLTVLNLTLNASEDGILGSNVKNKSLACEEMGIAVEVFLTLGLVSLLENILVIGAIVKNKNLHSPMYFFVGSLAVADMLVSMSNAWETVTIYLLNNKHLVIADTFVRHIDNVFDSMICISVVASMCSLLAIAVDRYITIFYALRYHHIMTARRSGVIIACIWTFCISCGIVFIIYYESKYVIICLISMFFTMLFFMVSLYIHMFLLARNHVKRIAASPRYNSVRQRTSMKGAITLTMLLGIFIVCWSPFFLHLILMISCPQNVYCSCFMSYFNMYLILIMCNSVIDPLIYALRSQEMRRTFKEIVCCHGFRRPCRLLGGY

Row | inverse agonist apparent potency | inverse agonist, % decrease from basal cAMP | agonist EC50 (cAMP AlphaScreen) | Binder
27 | 0.11 µM | -20% | – | B8
28 | – | – | > 100 µM | cyclo(PRFF[Nle]AF[dP]) [c[Pro-Arg-Phe-Phe-Nle-Ala-Phe-DPro]]
29 | 0.05 µM | -20% | – | B9

target: T3, mouse melanocortin-1 receptor; experiment: cell-based or functional assay; remark: another data set of the same source

Row | agonist EC50 (cAMP AlphaScreen) | partial agonist, % receptor stimulation | Binder
30 | > 100 µM | – | B1
31 | 2.6 µM | 75% | B2
32 | 0.6 µM | 25% | cyclo(PRFFRAF[dP]) [c[Pro-Arg-Phe-Phe-Arg-Ala-Phe-DPro]]
33 | 0.6 µM | 85% | B3
34 | > 100 µM | – | B4
35 | > 100 µM | – | B5
36 | 0.19 µM | – | B6
37 | 0.56 µM | 70% | PRFFXAFP (head-to-tail cyclic; hPhe at 4; Dap at 5; DPro at 8) [c[Pro-Arg-Phe-hPhe-Dap-Ala-Phe-DPro]]
38 | > 100 µM | – | B7

target: T4, mouse melanocortin-5 receptor; experiment: cell-based or functional assay; remark: another data set of the same source

Row | EC50 (cAMP AlphaScreen, inverse agonist) | Binder
39 | > 100 µM | B1
40 | > 100 µM | cyclo(PRFFRAF[dP]) [c[Pro-Arg-Phe-Phe-Arg-Ala-Phe-DPro]]
41 | > 100 µM | B3
42 | > 100 µM | B4
43 | > 100 µM | B10
44 | > 100 µM | B5
45 | > 100 µM | B6
46 | > 100 µM | PRFFXAFP (head-to-tail cyclic; hPhe at 4; Dap at 5; DPro at 8) [c[Pro-Arg-Phe-hPhe-Dap-Ala-Phe-DPro]]
47 | > 100 µM | B7

target: T3, mouse melanocortin-1 receptor; experiment: cell-based or functional assay; remark: another data set of the same source

Row | % maximal NDP-MSH response at 100 µM (cAMP AlphaScreen) | agonist EC50 (cAMP AlphaScreen) | partial agonist efficacy, % of NDP-MSH | Binder
48 | 50% | – | – | cyclo(P[dR]FFNAF[dP]) [c[Pro-DArg-Phe-Phe-Asn-Ala-Phe-DPro]]
49 | – | 0.5 µM | 90% | cyclo(P[dR][dF]FNAF[dP]) [c[Pro-DArg-DPhe-Phe-Asn-Ala-Phe-DPro]]
50 | – | 0.7 µM | – | cyclo(PR[dF]FNAF[dP]) [c[Pro-Arg-DPhe-Phe-Asn-Ala-Phe-DPro]]
51 | 50% | – | – | cyclo(PRF[dF]NAF[dP]) [c[Pro-Arg-Phe-DPhe-Asn-Ala-Phe-DPro]]
52 | – | 1.3 µM | 85% | cyclo(P[dR][dF][dF]NAF[dP]) [c[Pro-DArg-DPhe-DPhe-Asn-Ala-Phe-DPro]]
53 | – | 0.8 µM | 85% | cyclo(PR[dF][dF]NAF[dP]) [c[Pro-Arg-DPhe-DPhe-Asn-Ala-Phe-DPro]]
